Experimental data as given in US6642203B1, “Crustacean antimicrobial peptides” (Institut Francais de Recherche pour l'Exploitation de la Mer, priority 1997, dated 2003).

Key:
Assay type in all cases: cell-based
Micrococcus luteus = experiment: Measurement of the bacteriostatic properties (CFU over time); conditions: for colonies formed (cfu): 18 μM (8 times MIC)
Description: A midlogarithmic phase culture of Micrococcus luteus in the “Poor Broth” medium defined above was incubated at 30° C. in the presence of the peptide or (as control) of water. The final concentration of the molecules tested is 8 times higher than the MIC. 20-μl alquots are collected at various time intervals and cultured on nutrient agar plate. The number of colonies formed (CFU) is determined after 24 hours of incubation at 37° C.

Neurospora crassa = experiment: Antifungal activity, inhibition of growth in liquid phase
Description: (§1) The antifungal activity was determined against Neurospora crassa and Fusarium oxysporum by a test of inhibition of growth in liquid phase. 80 μl of fungal spores (final concentration: 10^4 spores/ml) are suspended in ½ Potato Dextrose Broth (DIFCO) supplemented with tetracycline (10 μg/ml) and cefotaxime (100 μg/ml). This suspension was added to 10 μl of the fraction to be tested in microtitre plates. The final volume is brought to 100 μl by addition of 10 μl of water. Growth inhibition can be observed under a microscope after 24 hours of incubation at 25° C. in the dark, and measured by the variation in the optical density at 600 nm after 48 hours.

Fusarium oxysporum = experiment: as above
Description: as §1

Escherichia coli D31 = experiment: Antibacterial assay, inhibition of growth in liquid phase (MIC); conditions: Escherichia coli D31, 24 h at 30° C.
Description: The bacteria are cultured with a starting optical density A600=0.001 in “Poor-Broth” nutrient medium (1% bactotryptone, 0.5% NaCl w/v).
The fractions were tested by inhibition of growth in liquid phase.
10 μl aliquots of each fraction to be tested are incubated in microtitre plates with 100 μl of a suspension of bacteria at the midlogarithmic phase.
The bacterial growth is measured by determining the optical density A600 after an incubation of 24 hours at 30° C.
An identical procedure was used to determine the minimum inhibitory concentration (MIC) of the molecules on these bacterial strains. The MIC values correspond to an interval a-b of peptide concentrations, where a represents the highest concentration at which bacterial growth is observed, and b is the lowest concentration which causes 100% inhibition of growth.

B1: Penaeidin 3: antimicrobial peptide of 62 amino acids, about 6.6 kDa, from Penaeus vannamei haemolymph (protein, listed as Penaeus vannamei)
chain: EVYKGGYTRPIPRPPPFVRPLPGGPIGPYNGCPVSCRGISFSQARSCCSRLGRCCHVGKGYS
Micrococcus luteus; incubation time 1 min
  colonies formed (cfu): 4.30 10^4 cfu/ml
Micrococcus luteus; incubation time 30 min
  colonies formed (cfu): 4.45 10^4 cfu/ml
Micrococcus luteus; incubation time 2 h
  colonies formed (cfu): 3.15 10^4 cfu/ml
Micrococcus luteus; incubation time 4 h
  colonies formed (cfu): 4.60 10^4 cfu/ml
Micrococcus luteus; incubation time 7 h
  colonies formed (cfu): 4.50 10^4 cfu/ml
Micrococcus luteus; incubation time 24 h
  colonies formed (cfu): 5.60 10^4 cfu/ml
Micrococcus luteus; 18 μM, after an incubation of 24 hours
  bacterial growth: no bacterial growth is observed
Micrococcus luteus; 18 μM, number of colonies constant over sample collections
  kind of antibacterial effect: bacteriostatic effect
Neurospora crassa
  MIC: > 5 µM
Fusarium oxysporum
  MIC: > 5 µM
Escherichia coli D31
  MIC: > 5 µM
